Experiment: soluble on expression in E. coli; label from the status in PepcDB or PDB records

Sequence | soluble on expression in E. coli
MGSDKIHHHHHHMMLGNIAYMNPWWEGKEDYHVKLWKNQKIRWEPNWVREISLKPFSLNFILGPRQVGKTTGIKLLIQKILENNPPESVLYLNLEVLPTYRDLLEIIREFQELKKEERIKTGYIFLDEASSLEGWWRGIKPLIDAGLLENDVVTVTGSSSLRVRRDIEMFPGRRGEGKTLEIMPLSFPEYIKVMGLKKHRLESTKVLKLFDKYIQTGGFPGSINGFPMEDLLGAYIGEFVRFGKSLEIAKETLAALIRSAPSATSFRALAEMTSGYSYKVIQDYIEFFRDIYILGIAYLKEDNQVMYRREKKFFFRDPLLARLFSLWSGVEVREDALYEWIVQEHVFRRFGEVYYFRNSYEVDVIADNLKIEVKAGKAHRKYPRGVLVLEKDDIPFFLIEYYWTGLK | not soluble
MNFLSEQLLAHLNKEQQEAVRTTEGPLLIMAGAGSGKTRVLTHRIAYLMAEKHVAPWNILAITFTNKAAREMRERVQSLLGGAAEDVWISTFHSMCVRILRRDIDRIGINRNFSILDPTDQLSVMKTILKEKNIDPKKFEPRTILGTISAAKNELLPPEQFAKRASTYYEKVVSDVYQEYQQRLLRNHSLDFDDLIMTTIQLFDRVPDVLHYYQYKFQYIHIDEYQDTNRAQYTLVKKLAERFQNICAVGDADQSIYRWRGADIQNILSFERDYPNAKVILLEQNYRSTKRILQAANEVIEHNVNRKPKRIWTENPEGKPILYYEAMNEADEAQFVAGRIREAVERGERRYRDFAVLYRTNAQSRVMEEMLLKANIPYQIVGGLKFYDRKEIKDILAYLRVIANPDDDLSLLRIINVPKRGIGASTIDKLVRYAADHELSLFEALGELEMIGLGAKAAGALAAFRSQLEQWTQLQEYVSVTELVEEVLDKSGYREMLKAERTIEAQSRLENLDEFLSVTKHFENVSDDKSLIAFLTDLALISDLDELDGTEQAAEGDAVMLMTLHAAKGLEFPVVFLIGMEEGIFPHNRSLEDDDEMEEERRLAYVGITRAEEELVLTSAQMRTLFGNIQMDPPSRFLNEIPAHLLETASRRQAGASRPAVSRPQASGAVGSWKVGDRANHRKWGIGTVVSVRGGGDDQELDIAFPSPIGIKRLLAKFAPIEKV | soluble
MTTAARRPAPTTAGAGWDAGVGALVNPSRRRGGTLRLVSSADVDSLDPARTYYVWVWLLQRLLNRTLMAYPTDPGPAGLVPAPDLAEGPGEVSDGGRTWTYRLRRGLRYDDGTPITSDDVRHAVQRVFAQDVLPGGPTYLIPLLDDPERPYPGPYRTDEPLRSVLTPDEHTIVFRLTRPFSDFDHLMAQPCAAPVPRRSDTGADYGRDPRSSGPYRVARHEPDTLLHLERNPHWDRATDPIRPALPDRVELTIGLDVDVLDARLIAGEFDINLEGRGLQHAAQRRATADEVLRSHTDNPRTSFLHFVAMQPHIPPFDNVHVRRAVQYAADKILLQDARGGPVNGGDLTTALFPPTLPAHQDLDLYPTGPDLRGDLDAARAELAAAGLPDGFRAVIGTQRGKFRLVADAVVESLARVGIELTVKELDVATYFSLGAGHPETVREHGLGLLVTDWGADFPTEYGFLAPLVDGRQIKRNGGNWNLPELDDPEVNALIDETLHTTDPAARAELWRAVERRVMEHAVLLPLVHDKTLHFRNPWVTNVYVHPAFGLYDIQAMGLAEED | soluble
MGSDKIHHHHHHMNYEDFKEVIHGRRSVRKFTEQEVATSDIKDIIDCARYAPSDTNSQTWEFLVIMNREKIKEIEQMTWDALHKLAAKAAKNGEEKAGKLLTRSFGPYATAFSEAPVLIVCLATPYESKFREKIFDPIAFVPDSVWEEEGIKSSCLAAQNLMLAAHAKGLGTCPMTGPVLLAQDELRQYLQIEPEKQINMVISLGFPKDKPKKLPRKEVDEITTFVF | not soluble
MSLSDRWDQTGLKTRVDGVLRSFLDEEAAHLAAVDAALAPVADQLRKAAGHGKRLRAAFCYWGWRAAGQPESDALVRAAASMELVHAAAVVHDDLIDDSRLRHGLPTAHVALEAVLARDGRPDARTAARSLAMLVGDQLMVLAGLLFTTSGLPAAYLARARDLWAVLARELVAGECLEILHTGGPPDTGTSLKVVRYKTAKYTVEHPLLIGGLLAGAAPALRDTYRAYALPLGEAFQLRDDLLGLFGDPERTGKASLDDLRAHRPTALLAETWKAADASQRQWLRRLLGRDDLDATHLHDVRRLMRELNAPQRVEQMIADRVERATRALDGAGTPPHARRALRELAQQATDRTHEGHHHHHH | soluble
MARASGASDYRSGELSHQDERGAAHMVDITEKATTKRTAVAAGILRTSAQVVALISTGGLPKGDALATARVAGIMAAKRTSDLIPLCHQLALTGVDVDFTVGQLDIEITATVRSTDRTGVEMEALTAVSVAALTLYDMIKAVDPGALIDDIRVLHKEGGRRGTWTRR | soluble
MGSDKIHHHHHHMLGENIYLQRTQIGMTQENLSDYLHLTKTTISKWENNQAKPDIDYLILMANLFDISLDDLVGYQKTLSDDQRNQLIKDLKIKANVLSERDFFQEVKELSKQFPNDFKTLLIMINMVLSNLTNLNDSEMKEWSLSTLNKIISKTVVESDLQTAIMFKTVVLFHNLEYDEVINLYQNSPYKLGEELLLANSFFAKVDVYRAKQVLQVEIYQQILLVCEYLLSLSTFEVEENKGDIFERLEHMIEAFQLNSLHPNTVIKCYYSLACHYSKSDDDKALGYLKQCFKSLKQLLQRFELHGDTFFYTIDDWLETIPTGIAPPTSQLQVIERVEDLFQNSQFKELSGHKEFQQMIQKLNDLKKDY | not soluble
ASEEEKAWLMASRQQLAKETSNFGFSLLRKISMRHDGNMVFSPFGMSLAMTGLMLGATGPTETQIKRGLHLQALKPTKPGLLPSLFKGLRETLSRNLELGLTQGSFAFIHKDFDVKETFFNLSKRYFDTECVPMNFRNASQAKRLMNHYINKETRGKIPKLFDEINPETKLILVDYILFKGKWLTPFDPVFTEVDTFHLDKYKTIKVPMMYGAGKFASTFDKNFRCHVLKLPYQGNATMLVVLMEKMGDHLALEDYLTTDLVETWLRNMKTRNMEVFFPKFKLDQKYEMHELLRQMGIRRIFSPFADLSELSATGRNLQVSRVLQRTVIEVDERGTEAVAGILSEITAYSMPPVIKVDRPFHFMIYEETSGMLLFLGRVVNPTLL | soluble
MGSDKIHHHHHHMSPLKSFLGVIYMNRSERLNQELIFLSYRQEFHIKELMQEFNISKRTALRDVNSLEQLGLSIYVEPGRYGGYQIMQQQLWVPILLNSQEINALFFALKALSLLSATPFEKSYHTIYKKLMATLSLSNQRQVAKLQRVVNYYSIPNLDAPTHLSDLLTAILDENVVQLTMTTVTAGFQIFDLLYRHGIWFFSGVNLDNNAWGIYRCDTIKVFQTSEQPARYTWKQLAQRQRSYDHHHHNIRYKCALTPPGREHVQKNNYPNMHLTHQNDQDYLIGGYNQDELAYMVDYLLGLGRNVRIIYPEALKTAYLQELQQIQDFY | not soluble
MGSDKIHHHHHHMKPYIVAHMMSSLDGRSLTDGWHLDYASDLYETTAATFEADGWICGRVTMQEISHGKDYPAGLASGAVPRTDHFVERNADQYAISIDPQGRVAWKSNTALKSHVIEVLTEQVADDYLAYLQSIGVSYVFGGKTGIDLDKVVQTLARELGVKKLIVEGGSHVSGAFVNAGLVDEVSVLILPLVDGRSEHPSSFEVAMEKWQAPAYLKLTSVEKTDHDAVWLRYTKA | not soluble
MAKNTSCGVQLRIRGKVQGVGFRPFVWQLAQQLNLHGDVCNDGDGVEVRLREDPEVFLVQLYQHCPPLARIDSVEREPFIWSQLPTEFTIR | soluble
PKYTLHYFPLMGRAELCRFVLAAHGEEFTDRVVEMADWPNLKATMYSNAMPVLDIDGTKMSQSMCIARHLAREFGLDGKTSLEKYRVDEITETLQDIFNDVVKIKFAPEAAKEAVQQNYEKSCKRLAPFLEGLLVSNGGGDGFFVGNSMTLADLHCYVALEVPLKHTPELLKDCPKIVALRKRVAECPKIAAYLKKRPVRDF | soluble
MSLDREKANKNLLKILEAINGNSLVLFKSFEDLDSFYKYLKREITKTNIKNKNIHVYEQGMDGKEAKELKERFEKIGGILLATGRFAEGVDIPGEALVGVVIDSLPFPVPTPLILREQKILEERFKIRGVRDAHWRAFLMTSFDRMARTLVQMIGRLIRTENDYGVVVIQDKRFADWVGRVMREKGEGHHHHHH | soluble
MAHHHHHHMEALETLRSIAPVSSTEEIQAMIKSAKNAREVRMVLERIVYTHHLCFDLLNGHGYRVAVLQTLTAVAPHASCMHEWFDCVARFRRLGFVLTRTYAAEGFTTIRQWLSHEFFHRGRSPSLVTEGTAHIKELMQWCLEDRLVFDHVLYTRIVFLLTMIVSYLDRQNLYRASFPEDFAKRDGIVVEWIVTNERCVDFDECVLQCDAVMEELLEQMRQDIPSRPPFSFMYRLADYYFATDNVEKMIAVMEDAESYGVSVAESTTAKLMQMACAFNSPQVPELLLRWRVLPPQCVLATPDMSRLLFFYSRSGGGLPCPHCGEAYNHRNVSVYCWLQTPPHQRQCPALRKARVQKGELEESRELPQNADWSAQAFGLFELSRARAIEWTAVEWRGFLLCCIFSPRAMEAKALMDQYLDVTEMDDFLRAACIRLLRHHAPAEAWPTLKKWKQQQCNMSPIALQEALMAASMVADAATRLEHMKAVWQLLLEKDSYVMPLTRRFYQRRMEELATSYAAAAASGDGKESQGGLATEREEAQLMQRVVEMQPRHVSLLDMKDSAADFVVGTRRKNVYRPR | not soluble
MVQWSPFVMSFKKKYPWIQLAGHAGSFKAAANGRILKKHCESEQRCLDRLMADVLRPFVPAYHGDVVKDGERYNQMDDLLADFDSPCVMDCKMGVRTYLEEELTKARKKPSLRKDMYQKMVEVDPEAPTEEEKAQRAVTKPRYMQWRETISSTATLGFRIEGIKKEDGSVNRDFKKTKTREQVTEAFREFTKGNQNILIAYRDRLKAIRATLEISPFFKCHEVIGSSLLFIHDKKEQAKVWMIDFGKTTPLPEGQTLQHDVPWQEGNREDGYLSGLDNLIDILTEMSQG | soluble
MLPEEHLMLRQAVILVGGLGTRLGERTKARPKPMLEIGGRPFLDTLIDELDRYQIFDEILLLAGHKAEIVETHYAGATRGRAKIVVSRETEPLGTGGALVHAAPLLDQHFLLLNGDSLFDFNLLDLIARAQGGRVHMALRDGVVGDRYGRVVLDGDIVRDFIAPGAGATGPVNAGIYVVDKSIIAEIAKLPASLEQDVFPGLVRSGELRGTAYRGYFIDIGIPDDFARADRELREKLQRPAVFFDRDGVLNHDSGYTFETHKLEWIEGAREAVKAVNDAGYFAFVITNQSGVARGYYEEHHVLALHRWMADQMALIGAHIDAFEYCPDHPDGTVARYCRISDRRKPAPGMITDLAQRFSVDMTRSMVVGDKDSDMAAAQAAGLAGHMFEGGNLEAFVKQRLKPADKGLEHHHHHH | not soluble
AHHHHHHASAKWVCKICGYIYDEDAGDPDNGISPGTKFEELPDDWVCPICGAPKSEFEKLEDGSRRMDKVDLQLIKILSQNSRLTYRELAEMLGTTRQRVARKVDKLKKLGIIRKFTIIPNLEKLNYMYAILLIKVKATENIYQVAKVLKDHEDVKILELGVGKYNIIAHVLVPKDIKKAQEKVNDVIKEINGIEDLEVEFVSDIPKFELL | soluble
MAHHHHHHMANRTDASAIKNFGSNPQYLISNIIRSKIYDSPYWKEKCFALTSESIIDQAINLKYVGGTYGGNRKPTRFLCLILKLLQIQPDKDIIYEYIKNEDFVYLRALGIFYLRLIGKSLEVYNHLEPILFDYRKIRMRLQNGTFEKIYMDVFVDNCLILNNFLDVDFPTLTKRQVLEENNLLQRKNLEYYKALLNISSDNELFKNNEDTTHNKNKEINKNKNEYKQRDMLERHKKINKYSSEDDHNYYHKKEGNYDKNKKHNKIYNHKYNNKYDDEERRHHSDYSSDMDRKSRKKEKKRTHSKYDHKKKKEKRNYSSDSKHSFTSSEYSVQNKKEEHDKKKKKLFFLKKQKKKNYHSSSQSNHSYDENKKDELSIDKWNEIRKELGMKPLK | soluble

From the DeepSol protein solubility set
